Reference: the supplement of paper PMC10567573

B1: KRT18 (parent)
chain: RVRSLETENRRLESKIREHLEKKG
B2: PKD2L1 (parent)
chain: VFIFYYVVEEILELHIHRLRYLSS

Variants of: B1
Assay: protein stability index of a GFP-peptide fusion (GPS, HEK-293T) (PSI 1-6); higher = more stable
Conditions: c terminus: a fixed tail appended
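Further: lentivirally expressed fusions sorted by FACS into six bins by GFP to DsRed ratio, PSI derived from sequencing read proportions per bin multiplied by bin number.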

Protein stability index, by site and new letter:
G24: I 3.83; C 3.69; Q 4.14; H 4.48; V 4.01; P 4.13; W 4.04; K 4.57; F 3.56; N 4.61; L 4.03; Y 3.92; D 4.87; R 3.81; M 3.73
K22: S 4.05; R 4.21; T 4.45; V 4.52; C 4.61; W 3.02; N 4.09; G 4.06; P 4.82; F 4.16; L 4.12; I 3.85; A 3.65; Q 4.89; Y 4.08; M 3.73; E 4.86
K23: G 4.75; T 4.22; L 3.87; Q 4.32; F 3.76; N 4.78; I 3.2; V 4.14; A 4.56; C 3.86; H 3.96; S 4.52; D 5.45
E21: A 4.21; K 3.75; G 4.62; C 4.28; T 4.2; R 3.99; L 3.19; W 3.32; Q 3.74; S 4.36; H 4.43; N 4.11; F 3.67; M 4.15; V 3.93; D 4.98; I 3.9
L20: P 5.58; N 4.78; K 4.96; F 4.59; W 3.95; E 5.7; I 4.79; T 4.99; H 5.35; G 4.97; S 5.44; R 5.23; V 4.94; A 5.1; M 5.12

Variants of: B2
Assay: as above
Conditions: c terminus: a fixed tail appended

Protein stability index: each site, then its substitutions
V1: G 3; W 2.35; P 2.44; L 2.15; K 2.63; Y 2.76; N 2.89; S 1.97; C 1.97; H 2.21; F 1.49
R20: W 2.38; F 2.85; Y 2.76; L 2.38; I 1.98; V 3.27; Q 1.89; K 2.34; H 2.34; T 3.91; G 2.12
L12: G 1.89; C 2.92; K 2.59; R 2.27; D 2.63; W 2.15; T 3.03; H 3.78; Y 2.89; E 2.76; Q 3.48; F 3.21; I 2.21; A 2.33
V8: I 3.22; H 2.51; L 2.74; D 1.41; Q 1.9; T 1.93; N 2.16; G 4.19; W 2.57; F 3.06; M 3.67
L19: M 2.53; D 2.8; T 4.02; W 3.75; N 2.31
L14: D 1.93; I 2.22; T 4.48; Y 2.14; N 3.64; V 3.38; H 2.69; C 2.19; W 1.99; P 3.5; M 2.66; E 2.14; K 2.29; R 2.59
E13: V 3.39; H 3.19; W 3.26; M 2.72; D 2.04; P 2.44; C 3.03; L 3.25; Y 1.93; F 3.37; K 2.36
E10: I 2.56; R 2.41; C 1.36; P 2.76; D 2.75; H 2.68; L 2.35; N 2.86; T 1.62; W 2.69; A 3.28
Y21: K 2.84; L 2.06; V 3.28; Q 3.68; P 3.02; M 4.01; E 2.27; F 3.66; R 1.55; D 1.89
H15: W 2.13; C 2.86; M 3.1; R 2.97; P 3.51; V 2.21; T 2.71; D 2.24; Y 3.19
F4: M 2.56; V 3.48; W 1.29; Y 2.36; A 4; K 2.57; N 2.21; S 2.7; Q 2.99; H 2.09
S23: F 2.05; V 3.04; T 3.81; Y 2.19; R 4.53; Q 3.46; E 2.12; N 1.82; I 4
E9: Q 2.61; G 1.71; N 2.21; R 4; P 2.49; D 3.91; Y 1.67; I 3.16; K 3.5; S 1.63
S24: H 3.15; T 2.47; N 3.95; L 2.58; K 1.12; P 2.94; F 2.37
V7: H 3.16; Q 3.24; Y 1.75; P 2.85; I 2.11; S 4.39; W 2.54; G 2.25; F 1.93; A 4.67; N 2.13; D 3.12; C 3.58
I11: G 2.73; M 2.46; S 3.09; N 3.75; D 2.57; P 1.89; F 3.73; K 2.51; C 4.54; T 2.64; Q 3.96
L22: N 1.32; I 3.59; E 2.43; G 2.34; F 3.34; C 3.65; K 3.19; P 4.59; T 3.77
F2: E 1.5; R 3.23; T 3.77; G 3.34; P 2; A 1.52; Y 3.06; L 2.11; M 4.81; Q 3.67; S 2.65; N 3.7
I16: N 3.35; R 2.6; G 3.3; W 3.5; F 3.25; S 3.37; D 3.73; K 2.34; E 2.46; M 2.9; C 3.5; Y 2.18; A 2.11
H17: I 2.97; S 3.69; L 2.14; A 2.18; P 2.54; V 4.2; G 4.03; Y 2.69; Q 4.68; K 2.13; F 2.87; E 1.77
R18: K 2.64; E 2.76; L 3.78; V 1.65; M 3.01; C 2.63; H 1.63; Q 2.37
Y5: F 2.11; S 2.86; G 1.31; D 3.1; M 2.79; T 2.27; K 3.67; H 3.91; W 2.24; N 2.63
Y6: S 4.37; H 2.85; A 1.41; L 3.99; M 2.17; F 1.65; W 3.85; D 2.42; T 3.44; K 2.12; R 2.78; N 2.01; I 2.85
I3: R 3.57; S 2.73; F 2.89; Y 3.43; P 3.06; T 1.54; E 4; A 1.69; G 2.35; L 2.25; N 3.08; D 3.59; H 1.62
